Reference: the supplement of paper PMC10567573

B1: MYBL2 (parent)
chain: FSPSQFLNFWNKQDTLELESPSLT
B2: KRT34 (parent)
chain: PTVDLNQVLNETRSQYEALVETNR

Variants of: B1
Assay: protein stability index of a GFP-peptide fusion (GPS, HEK-293T) (PSI 1-6); higher = more stable
Conditions: c terminus: a fixed tail appended
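Also: lentivirally expressed fusions sorted by FACS into six bins by GFP to DsRed ratio, PSI derived from sequencing read proportions per bin multiplied by bin number.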

Protein stability index, by site and new letter:
S4: A 2.14; M 3.27; K 2.53; H 2; P 2.14; F 3.04; Q 4.58; L 2.12; N 3.63; W 2.35; Y 2.98; E 2; C 2.91; D 1.79; I 4.06; T 3.36; V 2.57; G 4.19
L16: R 4.02; G 4.14; I 2.58; V 2.19; A 3.1; Q 3.33; C 2.68; K 2.75; M 2.56; Y 3.49; H 3.68; F 3.19; E 1.26; S 2.5; P 2.29; T 1.5; D 3.85
Q13: T 2.4; A 3.54; D 3.51; Y 3.56; I 4.44; V 2.94; F 2.17; N 3.24; P 2.06; S 3.98; W 3.25; M 3.43; H 3.41; R 1.21
W10: C 2.5; R 2.62; D 3.87; H 2.77; I 2.28; Q 3.5; N 3.38; E 3.51; G 2.93; K 2.8; M 2.17; A 2.48; S 2.91; P 3.45; L 2.06; Y 2.63; T 2.98; V 1.89; F 2.18
F1: Y 4.39; V 3.72; W 2.73; H 2.13; N 3.3; P 4.2; E 4.58; Q 3.74; M 3.3; D 4.27; T 3.75; G 2.83; S 4.11; I 3; K 3.75; A 3.77; L 3.51; R 3.06; C 2.62
S2: D 1.92; C 2.66; Q 2.71; I 3.87; Y 1.63; V 3.06; A 2.65; W 2.98; H 3.45; R 2.26; K 1.99; T 3; M 3.62; E 2.08; F 2.14; P 2.13; L 2.79; N 2.38
D14: M 2.63; C 4.04; L 2.6; S 1.31; K 4.25; P 2.98; Y 3.5; F 3.92; A 2.94; R 4.08; V 3.22; H 2.39; Q 2.89; G 2.94
Q5: D 2.75; A 2.55; H 2.79; F 2.31; T 3.6; M 2.95; S 2.83; Y 2.29; C 3.02; R 2.6; G 3.07; W 2.86; N 2.27; P 3.49; K 2.44
L7: H 3.34; K 2.97; R 2.38; A 3.29; I 3.39; P 2.25; Y 2.76; G 2.59; Q 2.92; T 3.42; F 2.6; N 3.1; V 3.57; C 3.24; W 2.38; M 3.04
F9: Q 2.15; P 2.48; D 2.98; C 2.17; S 1.83; W 2.84; A 1.87; V 3.09; R 2.13; I 3.65; Y 1.74; H 2.43; N 2.29; T 1.96; M 1.63; L 2.98; K 2.44; G 1.6; E 2.43
E17: W 2.71; P 1.74; F 1.84; R 2.45; I 3.94; Q 3.02; K 2.48; A 1.07; M 3.58; L 3.9; Y 2.41; D 3.02; H 2.37; T 2.41; N 2.33; V 3.59; S 3.58; C 2.41
N11: G 2.56; A 1.4; P 2.51; Y 3.26; L 3.89; C 4.67; T 2.79; F 2.14; R 2.48; I 2.5; D 3.14; Q 2.77; E 2.73; S 2.99
F6: V 2.39; N 2.21; T 1.5; L 4.19; H 2.6; C 1.61; Q 3.08; P 3; D 2.59; K 2.86; E 4; R 3.66; S 2.31; A 2.02; W 2.7
P3: R 2.39; E 1.6; M 2.3; Y 3.74; H 1.94; F 3.08; G 2.41; L 2.69; S 2.18; W 2.18; T 2.94; K 2.02; A 3.83; N 2.38; D 3.71; I 3.19; Q 3.52; V 1.77
N8: W 2.9; V 3.44; P 2.91; F 4.01; R 2.93; A 3.07; Y 2.06; K 2.74; L 3.22; D 2.08; S 3.58; I 4.12; M 3.6; Q 2.17; T 3.92
T15: D 2.09; L 3.22; K 2.68; C 2.54; I 2.92; W 3.33; Y 1.38; N 3; F 2.34; H 3.8; S 4.29; P 2.48; E 2.4; A 3.05; M 3.12; Q 1.82; R 2.54; G 3.51
L18: I 2.61; C 2.55; F 3.19; D 2.79; G 2.58; M 2.88; H 1.77; N 1.98; K 2.98; E 3.1
K12: Q 1.93; M 3.42; D 3.15; N 2.84; E 2.25; H 2.4; R 2.52; V 4.37; P 3.55; A 2.9; G 4.46; S 2.02; T 2.59; Y 3.78; I 3.21; F 2.97

Variants of: B2
Assay: as above
Conditions: c terminus: a fixed tail appended

Protein stability index: each site, then its substitutions
R24: Y 2.29; M 2.51; P 4.58; W 3.55; D 4.95; H 4.08; A 3.51; T 3.8; V 2.17; Q 4.18; G 4.17; C 2.56; E 3.88; K 4.32; L 2.68; S 4.81; I 3.11; F 2.5; N 4.74
N23: G 4.04; L 2.41; F 3.71; D 5.04; H 4.05; P 4.04; K 3.95; C 3.47; M 3.12; S 4.39; A 4.03; I 2.79; T 3.99; W 2.53; R 4.11; V 3; Q 4.52; E 5.16; Y 3.52
T22: V 1.71; W 4.02; Y 4.23
